Measured values reported in patent US7097843.

B1: peptide A2.4 (peptide)
peptide: TLGIVCPIC
modifications: not checked
B2: peptide A2.2 (peptide)
peptide: YMLDLQPET
modifications: not checked
B3: peptide A2.1/4 (peptide)
peptide: LLMGTLGIVCPIC
modifications: not checked

Molecular target: recombinant HLA-A*0201 refolded with purified human beta2-microglobulin (human)
Assay: circular dichroism melting of the refolded peptide-HLA-b2m complex (temperature at which 50% is melted)

| Binder | Tm |
| --- | --- |
| B1 | 41.5 °C |
| B2 | 52.5 °C |
| B3 | 41 °C |
